Reference: paper doi:10.1101/2021.05.19.444900 (bioRxiv, 2021)

B1: recombinant NAP1L1 (aa 69-391 of isoform 1) with N-terminal His-tag (domain or fragment)
chain: SLPRVVKRRVNALKNLQVKCAQIEAKFYEEVHDLERKYAVLYQPLFDKRFEIINAIYEPTEEECEWKPDEEDEISEELKEKAKIEDEKKDEEKEDPKGIPEFWLTVFKNVDLLSDMVQEHDEPILKHLKDIKVKFSDAGQPMSFVLEFHFEPNEYFTNEVLTKTYRMRSEPDDSDPFSFDGPEIMGCTGCQIDWKKGKNVTLKTIKKKQKHKGRGTVRTVTKTVSNDSFFNFFAPPEVPESGDLDDDAEAILAADFEIGHFLRERIIPRSVLYFTGEAIEDDDDDYDEEGEEADEEGEEEGDEENDPDYDPKKDQNPAECKQQ
B2: recombinant NAP1L4 (aa 2-375 of isoform 1) with N-terminal His-tag (natural protein)
chain: ADHSFSDGVPSDSVEAAKNASNTEKLTDQVMQNPRVLAALQERLDNVPHTPSSYIETLPKAVKRRINALKQLQVRCAHIEAKFYEEVHDLERKYAALYQPLFDKRREFITGDVEPTDAESEWHSENEEEEKLAGDMKSKVVVTEKAAATAEEPDPKGIPEFWFTIFRNVDMLSELVQEYDEPILKHLQDIKVKFSDPGQPMSFVLEFHFEPNDYFTNSVLTKTYKMKSEPDKADPFSFEGPEIVDCDGCTIDWKKGKNVTVKTIKKKQKHKGRGTVRTITKQVPNESFFNFFNPLKASGDGESLDEDSEFTLASDFEIGHFFRERIVPRAVLYFTGEAIEDDDNFEEGEEGEEEELEGDEEGEDEDDAEINPKV

Target: the molecule itself
Assay: SEC

Row | Protein | binding result
1 | B1 | binds
2 | B2 | binds
